From patent publication US20230174642A1, “AFFINITY-MATURATED ANTI-ASIC1a ANTIBODIES” (SHANGHAITECH UNIVERSITY, priority 2019, published 2023)

Columns and labels:
[1] = target: T1, recombinant extracellular domain of hASIC1a (hASIC1a-ECD) (Homo sapiens, UniProt P78348); experiment: Biacore T200 binding affinity measurement; settings: Biacore T200, hASIC1a immobilized, antibody as analyte
T1 construct: recombinant extracellular domain of hASIC1a(hASIC1a-ECD)
T1 sequence (P78348 67-427 limits assumed): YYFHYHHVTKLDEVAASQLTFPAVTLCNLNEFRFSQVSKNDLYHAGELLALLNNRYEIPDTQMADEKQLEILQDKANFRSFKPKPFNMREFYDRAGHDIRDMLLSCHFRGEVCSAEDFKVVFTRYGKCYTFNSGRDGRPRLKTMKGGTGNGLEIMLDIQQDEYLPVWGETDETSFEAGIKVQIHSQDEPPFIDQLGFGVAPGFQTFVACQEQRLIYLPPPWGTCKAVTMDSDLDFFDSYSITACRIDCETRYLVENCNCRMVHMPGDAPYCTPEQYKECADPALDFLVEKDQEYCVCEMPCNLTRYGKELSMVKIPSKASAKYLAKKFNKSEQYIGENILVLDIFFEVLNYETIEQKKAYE
Method: Binding affinities of four affinity-matured antibodies in IgG1 format (ASC06-01-IgG1 through ASC06-04-IgG1) to the recombinant extracellular domain of hASIC1a(hASIC1a-ECD) were measured using the Biacore T200™ (GE Healthcare). The ASC06-IgG1 antibody was used as a positive control. All manipulations were followed by the user guide of manufacturer. Briefly, was hASIC1a was immobilized, and serial dilutions of the indicated antibodies were added as analytes. The analysis of the results were processed in BIA Evaluation Software™.

[2] = target: T2, human ASIC1b (hASIC1b-eYFP) (Homo sapiens, UniProt P78348); experiment: FACS-based binding assay, transiently transfected CHO-K1 cells (isotype selectivity)
T2 construct: expressed in transfected cells; host or cells: CHO-K1 (transient)
T2 sequence (P78348 1-562 isoform P78348-3): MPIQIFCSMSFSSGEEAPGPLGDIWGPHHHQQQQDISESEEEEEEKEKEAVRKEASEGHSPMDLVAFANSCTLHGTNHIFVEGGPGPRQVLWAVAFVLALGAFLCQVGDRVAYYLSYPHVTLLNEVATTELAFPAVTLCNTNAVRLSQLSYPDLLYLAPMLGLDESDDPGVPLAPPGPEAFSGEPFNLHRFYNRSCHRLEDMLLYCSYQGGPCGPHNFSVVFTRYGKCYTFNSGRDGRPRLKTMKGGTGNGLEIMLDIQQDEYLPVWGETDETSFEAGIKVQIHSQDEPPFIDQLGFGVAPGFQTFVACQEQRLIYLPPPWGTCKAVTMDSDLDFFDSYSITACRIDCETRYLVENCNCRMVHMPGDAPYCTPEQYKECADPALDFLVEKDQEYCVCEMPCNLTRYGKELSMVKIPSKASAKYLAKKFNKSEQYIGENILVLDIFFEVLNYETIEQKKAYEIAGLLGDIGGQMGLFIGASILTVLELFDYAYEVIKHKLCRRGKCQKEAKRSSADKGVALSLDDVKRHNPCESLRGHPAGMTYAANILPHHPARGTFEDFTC
From the text: To examine the ASIC isotype selectivity of ASC06-IgG1 affinity-matured antibodies, plasmids encoding fusion proteins of eYFP with isoforms of […] were constructed. These plasmids included those encoding human ASIC1b (hASIC1b-eYFP), human ASIC2a (hASIC2a-eYFP), and human ASIC3a (hASIC3a-eYFP). CHO-K1 cells were transiently transfected with these plasmids and used in a FACS-based binding assay disclosed herein. Binding of ASC06-IgG1 to CHO-K1 cells expressing human ASIC1a-eYFP (hASIC1a-eYFP) was used as a positive control (data not shown and FIG. 2), and an isotype control was used as a negative control for binding (NC).

ASIC1a = target: T3, ASIC1a (Homo sapiens, UniProt P78348); experiment: Patch clamp whole-cell recording of acid-induced hASIC1a currents; type: cell-based; settings: for blockage of ASIC1a-mediated currents compared to ASC06-IgG1: 100 nM antibody
T3 construct: expressed in transfected cells
T3 sequence (P78348 1-528): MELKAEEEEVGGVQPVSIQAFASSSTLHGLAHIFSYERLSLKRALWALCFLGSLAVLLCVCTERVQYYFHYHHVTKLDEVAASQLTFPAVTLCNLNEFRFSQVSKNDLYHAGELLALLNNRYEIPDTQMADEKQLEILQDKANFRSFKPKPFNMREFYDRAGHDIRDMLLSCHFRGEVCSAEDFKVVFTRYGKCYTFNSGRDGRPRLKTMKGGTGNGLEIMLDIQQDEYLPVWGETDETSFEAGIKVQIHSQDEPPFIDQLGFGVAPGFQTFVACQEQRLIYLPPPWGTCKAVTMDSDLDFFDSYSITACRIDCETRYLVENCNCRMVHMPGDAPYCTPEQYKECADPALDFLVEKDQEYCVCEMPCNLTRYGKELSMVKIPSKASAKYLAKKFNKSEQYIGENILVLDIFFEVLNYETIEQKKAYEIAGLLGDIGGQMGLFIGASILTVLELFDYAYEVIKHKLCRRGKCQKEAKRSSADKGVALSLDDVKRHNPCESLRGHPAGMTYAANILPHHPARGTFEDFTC
Method: FIGS. 4A-4E show the effect of affinity-matured ASC06-IgG1 derivative antibodies on the hASIC1a currents. Shown are the representative current traces recorded from single CHO-K1 cells stably expressing hASIC1a in the absence or presence of 100 nM ASC06-IgG1 (FIG. 4A) or affinity-matured ASC06-IgG1 versions ASC06-01-IgG1 (FIG. 4B), ASC06-02-IgG1 (FIG. 4C), ASC06-03-IgG1 (FIG. 4D), or ASC06-04-IgG1 (FIG. 4E). Amiloride (30 μM) was used as a positive control. “Wash” represents the recovery of the current after the treatment of 100 nM indicated antibody followed by 15 min infusion of washing solution.
Whether the affinity-matured ASC06-IgG1 derivative antibodies have an effect on the acid-induced, hASIC1a-mediated electrical current in cells was tested. An hASIC1a overexpressing stable cell line was used as a model for these studies. Extracellular pH was decreased from pH 7.4 to pH 6.0 and the amplitudes of the hASIC1a-mediated inward currents were recorded in the whole-cell recording mode in the presence of the affinity-matured ASC06-IgG1 derivative antibodies (FIGS. 4A-4E). The ASIC1a inhibitor amiloride (30 μM) was used as a positive control for the inhibition of ASIC1a currents.

B1: ASC06-01-IgG1: affinity-matured ASC06 derivative, VH-CDR3 DSYFGYSKGD (SEQ ID NO: 11) (antibody, V domains shown)
VH: QVQLQQSGGGLVQPGGSLRLSCAASGFTFSSYAMSWVRQAPGKGLEWVSAISGSGGSTYYADSVKGRFTISRDNSKNTLYLQMNSLRAEDTAVYYCAKDSYFGYSKGDWGQGTLVTVSS
VL: QSALTQPASVSGSPGQSITISCTGTSSDVGAYNYVSWYQQQPGKAPKLMIYGVSNRPSGVSNRFSGSKSGNAASLTISGLQAEDEADYYCSSYTSSSTYVFGTGTKLTVLG
Ka [1]: 9.7e+06 M⁻¹ s⁻¹ | binding to the hASIC1b isoform [2]: no detectable binding

B2: ASC06-03-IgG1: affinity-matured ASC06 derivative, VH-CDR3 DSFYGRAKGS (SEQ ID NO: 15) (antibody, V domains shown)
VH: QVQLQQSGGGLVQPGGSLRLSCAASGFTFSSYAMSWVRQAPGKGLEWVSAISGSGGSTYYADSVKGRFTISRDNSKNTLYLQMNSLRAEDTAVYYCAKDSFYGRAKGSWGQGTLVTVSS
VL: QSALTQPASVSGSPGQSITISCTGTSSDVGAYNYVSWYQQQPGKAPKLMIYGVSNRPSGVSNRFSGSKSGNAASLTISGLQAEDEADYYCSSYTSSSTYVFGTGTKLTVLG
Ka [1]: 680000 M⁻¹ s⁻¹ | binding to the hASIC1b isoform [2]: no detectable binding | blockage of ASIC1a-mediated currents compared to ASC06-IgG1 (ASIC1a): stronger blockage

B3: ASC06-IgG1: parental (WT) ASIC1a-specific antagonist antibody; VL SEQ ID NO: 2, VH SEQ ID NO: 7, VH-CDR3 DSFYGYSKGD (antibody, V domains shown)
VH: QVQLQQSGGGLVQPGGSLRLSCAASGFTFSSYAMSWVRQAPGKGLEWVSAISGSGGSTYYADSVKGRFTISRDNSKNTLYLQMNSLRAEDTAVYYCAKDSFYGYSKGDWGQGTLVTVSS
VL: QSALTQPASVSGSPGQSITISCTGTSSDVGAYNYVSWYQQQPGKAPKLMIYGVSNRPSGVSNRFSGSKSGNAASLTISGLQAEDEADYYCSSYTSSSTYVFGTGTKLTVLG
modifications: IgG1 constant regions; Amino acid sequence VH of ASC06; Amino acid sequence VL of ASC06
Ka [1]: 4.7e+06 M⁻¹ s⁻¹ | binding to the hASIC1b isoform [2]: no detectable binding

B4: ASC06-02-IgG1: affinity-matured ASC06 derivative, VH-CDR3 DSFFGRAKGS (SEQ ID NO: 13) (antibody, V domains shown)
VH: QVQLQQSGGGLVQPGGSLRLSCAASGFTFSSYAMSWVRQAPGKGLEWVSAISGSGGSTYYADSVKGRFTISRDNSKNTLYLQMNSLRAEDTAVYYCAKDSFFGRAKGSWGQGTLVTVSS
VL: QSALTQPASVSGSPGQSITISCTGTSSDVGAYNYVSWYQQQPGKAPKLMIYGVSNRPSGVSNRFSGSKSGNAASLTISGLQAEDEADYYCSSYTSSSTYVFGTGTKLTVLG
Ka [1]: 1.3e+07 M⁻¹ s⁻¹ | binding to the hASIC1b isoform [2]: no detectable binding | blockage of ASIC1a-mediated currents compared to ASC06-IgG1 (ASIC1a): stronger blockage

B5: ASC06-04-IgG1: affinity-matured ASC06 derivative, VH-CDR3 DSFYGRAKGV (SEQ ID NO: 17) (antibody, V domains shown)
VH: QVQLQQSGGGLVQPGGSLRLSCAASGFTFSSYAMSWVRQAPGKGLEWVSAISGSGGSTYYADSVKGRFTISRDNSKNTLYLQMNSLRAEDTAVYYCAKDSFYGRAKGVWGQGTLVTVSS
VL: QSALTQPASVSGSPGQSITISCTGTSSDVGAYNYVSWYQQQPGKAPKLMIYGVSNRPSGVSNRFSGSKSGNAASLTISGLQAEDEADYYCSSYTSSSTYVFGTGTKLTVLG
Ka [1]: 620000 M⁻¹ s⁻¹ | binding to the hASIC1b isoform [2]: no detectable binding | blockage of ASIC1a-mediated currents compared to ASC06-IgG1 (ASIC1a): stronger blockage | Percent inhibition of the acid induced-hASIC1a currents (ASIC1a; 300 nM antibody, pH 7.4 to pH 6.0, mean ± standard deviation): 96.8 ± 3.4%
